From publication doi:10.1101/2023.06.07.543977

T1: mKu (mycobacterial Ku) (Mycobacterium tuberculosis, UniProt P9WKD9 1-273)
T1 sequence: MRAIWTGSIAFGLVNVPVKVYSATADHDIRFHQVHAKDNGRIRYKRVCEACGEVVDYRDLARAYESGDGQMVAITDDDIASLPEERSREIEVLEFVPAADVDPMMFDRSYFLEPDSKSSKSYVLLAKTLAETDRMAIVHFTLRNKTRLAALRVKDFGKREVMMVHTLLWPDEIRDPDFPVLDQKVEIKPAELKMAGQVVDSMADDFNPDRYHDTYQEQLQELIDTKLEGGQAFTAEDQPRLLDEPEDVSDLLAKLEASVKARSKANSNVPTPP


Target: T1, mKu (mycobacterial Ku)
Assay: SPR

Binder	apparent K (half saturation)
20 bp dsDNA (dsDNA) DNA 1: GTCGTAGCCCACCTGACCGT DNA 2: ACGGTCAGGTGGGCTACGAC	10.8 ± 2.47 nM
29 bp dsDNA (dsDNA) DNA 1: CGAACCAGCTGGCGCATAGCCGCGCTATC DNA 2: GATAGCGCGGCTATGCGCCAGCTGGTTCG	17.9 ± 4.58 nM
